Values quoted from earlier work in patent US20070264667A1, “Method and system for assaying transferase activity” (priority 2003, published 2007).

Assays:
IRK = IRK (Homo sapiens, UniProt P06213); conditions: competitive inhibitor of IRK; ref (20); read-out: reported Km
EGF receptor kinase = EGF receptor kinase (Homo sapiens, UniProt P00533); conditions: ref (22)
Chain of EGF receptor kinase (P00533 25-1210): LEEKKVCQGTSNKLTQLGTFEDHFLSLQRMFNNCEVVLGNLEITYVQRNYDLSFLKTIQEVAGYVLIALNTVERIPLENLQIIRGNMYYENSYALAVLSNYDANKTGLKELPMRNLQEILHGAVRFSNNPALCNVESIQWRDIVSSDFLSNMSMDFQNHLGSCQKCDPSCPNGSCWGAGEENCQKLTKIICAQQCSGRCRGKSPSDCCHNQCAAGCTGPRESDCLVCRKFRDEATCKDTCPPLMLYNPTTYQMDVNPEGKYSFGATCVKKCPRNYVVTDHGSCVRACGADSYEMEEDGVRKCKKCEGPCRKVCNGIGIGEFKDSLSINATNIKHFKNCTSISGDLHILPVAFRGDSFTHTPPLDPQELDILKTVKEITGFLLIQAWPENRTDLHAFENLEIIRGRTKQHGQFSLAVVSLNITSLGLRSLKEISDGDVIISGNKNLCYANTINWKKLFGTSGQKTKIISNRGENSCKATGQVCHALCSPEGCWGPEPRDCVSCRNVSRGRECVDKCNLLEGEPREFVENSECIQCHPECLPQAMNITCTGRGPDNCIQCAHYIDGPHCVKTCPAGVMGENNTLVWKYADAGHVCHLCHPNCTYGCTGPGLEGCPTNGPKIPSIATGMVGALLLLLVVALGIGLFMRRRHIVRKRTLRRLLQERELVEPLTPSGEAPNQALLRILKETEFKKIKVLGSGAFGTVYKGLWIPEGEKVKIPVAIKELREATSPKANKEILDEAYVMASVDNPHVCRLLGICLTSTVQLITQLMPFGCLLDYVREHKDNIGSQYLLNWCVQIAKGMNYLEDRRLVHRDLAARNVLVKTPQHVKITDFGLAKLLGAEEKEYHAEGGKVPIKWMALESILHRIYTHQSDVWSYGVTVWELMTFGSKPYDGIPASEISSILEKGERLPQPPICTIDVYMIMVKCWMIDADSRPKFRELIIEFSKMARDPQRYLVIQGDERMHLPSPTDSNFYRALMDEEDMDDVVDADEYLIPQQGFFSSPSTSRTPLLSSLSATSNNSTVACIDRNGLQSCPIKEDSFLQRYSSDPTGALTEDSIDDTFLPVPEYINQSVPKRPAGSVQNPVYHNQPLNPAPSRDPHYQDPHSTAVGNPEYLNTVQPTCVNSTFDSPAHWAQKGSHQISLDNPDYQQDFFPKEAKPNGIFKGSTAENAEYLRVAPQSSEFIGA

Km (IRK)	Ki (EGF receptor kinase)	Molecule
~24 µM	–	1RS727: peptide inhibitor of IRK with the sequence KKKLPATGDYMNMSPVGD
–	11 nM	O=C(O)c1cc(N(Cc2ccccc2O)Cc2cc(O)ccc2O)ccc1O [Lavendustin A]
